Data published in patent publication US20220017627A1 (Bristol-Myers Squibb, published 2022).
Residue numbers refer to the chain shown, from its start. Numbers in names are those of the source.

Assays:
[1] = biological target: T1, his-tagged cynomolgus-IL7R extracellular domain construct (cynomolgus, UniProt Q38IC7 21-240); test: SPR (Biacore T200), pH 6.0 against pH 7.4
T1 construct: also called cyno IL-7Rα; not shown: his tag
T1 sequence: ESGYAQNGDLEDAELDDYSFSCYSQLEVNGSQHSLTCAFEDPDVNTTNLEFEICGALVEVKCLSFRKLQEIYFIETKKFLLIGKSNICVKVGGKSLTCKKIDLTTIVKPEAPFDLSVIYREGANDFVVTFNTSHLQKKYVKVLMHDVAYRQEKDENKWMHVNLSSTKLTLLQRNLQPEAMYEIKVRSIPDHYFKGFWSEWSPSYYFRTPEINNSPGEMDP
Experimental: (§1) Briefly, experiments were performed on a BIACORE™ T200 instrument (GE Healthcare, Chicago, Ill., USA) in a running buffer consisting of 10 mM NaPO4, 130 mM NaCl, 0.05% p20 (PBS-T) at either pH 7.4 or pH 6.0. The chip surface was prepared by immobilizing protein A on flow cell 1, 2, 3, and 4 of a CM5 sensor chip using ethyl(dimethylaminopropyl) carbodiimide/NHS to a density of 4000 RU. […] Purified extracellular domain constructs (generated in house) of his-tagged human-IL7R or cynomolgus-IL7R were tested for binding using a 2 fold serial dilution from 500 nM to 7.8 nM, with 180 s association time and 360 s dissociation time at 30 μl/min. Regeneration between cycles was accomplished using 2×30 second injections of 10 mM glycine-HCL pH 1.5. The data were analyzed using the Biacore T200 Evaluation software (GE Healthcare), and fit to a 1:1 Langmuir model.

[2] = biological target: T2, his-tagged human-IL7R extracellular domain construct (human, UniProt P16871 21-239); test: SPR (Biacore T200), pH 6.0 against pH 7.4
T2 construct: Generated in house; also called human IL-7Rα; not shown: his tag
T2 chain: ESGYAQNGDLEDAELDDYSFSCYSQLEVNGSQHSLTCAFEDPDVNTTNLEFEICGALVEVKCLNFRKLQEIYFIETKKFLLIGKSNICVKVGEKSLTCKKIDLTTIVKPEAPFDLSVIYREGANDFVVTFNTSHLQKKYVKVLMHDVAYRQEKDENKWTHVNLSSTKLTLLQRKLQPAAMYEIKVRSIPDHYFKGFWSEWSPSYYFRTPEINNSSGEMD
Experimental: as §1

hIL-7R (Example 11) [3] = biological target: T3, hIL-7R (Example 11) (human, UniProt P16871 21-239); test: Biacore, mAb captured on anti-human IgG CM5 chip, hu IL-7R as analyte (top curve 33.3nM), HBS-P+ pH 7.4, 37 C
T3 construct: Called full length hIL-7R for the mRNA display and hIL-7R for the Biacore runs; also called full length hIL-7R; human IL-7R
T3 chain: T2 chain
From the text: (§2) Affinity (KD) of each variant binding to hIL-7R was obtained using this approach, and compared against the enrichment ratio (ER) obtained through NGS heat map analysis for the same variant.

[4] = biological target: T1, his-tagged cynomolgus-IL7R …; test: SPR (Biacore T200), antibody captured on protein A, his-tagged ECD as analyte, 37° C., pH 6.0
Experimental: as §1

[5] = biological target: T2, his-tagged human-IL7R extracellular …; test: as above
Experimental: as §1

[6] = biological target: T4, human IL-7Rα expressed on human T cells (whole blood / PBMCs) (human, UniProt P16871 21-239); test: flow cytometry binding, CD4+CD45RA- T cells in whole blood
T4 construct: Native receptor on primary cells; also called CD127
T4 chain: T2 chain

[7] = biological target: T4, human IL-7Rα expressed on human T cells …; test: flow cytometry binding, CD4+CD45RA+ T cells in whole blood
[8] = biological target: T5, cynomolgus IL-7Rα expressed on cynomolgus T cells / leukocytes (cynomolgus, UniProt Q38IC7 21-459); test: cell-based or functional assay
T5 sequence: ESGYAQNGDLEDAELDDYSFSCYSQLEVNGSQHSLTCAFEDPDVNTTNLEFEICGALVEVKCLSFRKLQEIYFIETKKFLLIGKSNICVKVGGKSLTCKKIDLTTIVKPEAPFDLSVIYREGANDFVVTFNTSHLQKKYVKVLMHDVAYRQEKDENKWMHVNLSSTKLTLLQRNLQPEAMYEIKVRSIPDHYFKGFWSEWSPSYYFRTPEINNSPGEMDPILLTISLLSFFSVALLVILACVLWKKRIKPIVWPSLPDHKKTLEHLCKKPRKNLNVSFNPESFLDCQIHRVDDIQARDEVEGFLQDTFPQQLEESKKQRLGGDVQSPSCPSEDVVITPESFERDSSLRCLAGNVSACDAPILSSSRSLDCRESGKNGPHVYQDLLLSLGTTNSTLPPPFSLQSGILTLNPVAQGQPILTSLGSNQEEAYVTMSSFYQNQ

hIL-7R (Example 11) [9] = biological target: T3, hIL-7R (Example 11); test: SPR (Biacore), reference of the ratio [cont'd]
From the text: as §2

[10] = biological target: T4, human IL-7Rα expressed on human T cells …; test: flow cytometry binding, CD8+CD45RA+ T cells in whole blood
[11] = biological target: T1, his-tagged cynomolgus-IL7R …; test: SPR (Biacore T200), antibody captured on protein A, his-tagged ECD as analyte, 37° C., pH 7.4
Experimental: as §1

[12] = biological target: T2, his-tagged human-IL7R extracellular …; test: as above
Experimental: as §1

[13] = biological target: T4, human IL-7Rα expressed on human T cells …; test: flow cytometry binding, CD8+CD45RA- T cells in whole blood
[14] = biological target: T5, cynomolgus IL-7Rα expressed on …; test: flow cytometry, occupancy of IL-7Ra on CD4+CD45RA+ T cells of cynomolgus monkeys after a single i.v. dose, against serum concentration
Experimental: To confirm the above cross-reactivity data, cellular binding and functional blockade were also assessed. […] Then, at day 8 post-administration, PBMCs were isolated from the animals.

[15] = biological target: T4, human IL-7Rα expressed on human T cells …; test: cell-based or functional assay
[16] = biological target: T4, human IL-7Rα expressed on human T cells …; test: cell-based or functional assay
hIL-7R (Example 11) [17] = biological target: T3, hIL-7R (Example 11); test: SPR (Biacore), ratio KD of parent 18B1 to KD of variant
From the text: as §2

hIL-7R (Example 11) [18] = biological target: T3, hIL-7R (Example 11); test: SPR (Biacore), ratio KD of parent 18B1 to KD of variant; row repeated at the end of the table [cont'd]
From the text: as §2

hIL-7R (Example 11) [19] = biological target: T3, hIL-7R (Example 11); test: NGS enrichment ratio of the mutation in the scFv library selected at 0.2 nM hIL-7R
From the text: (§3) All six CDRs of the antibody were mutated, with each position in the CDR mutated to all possible amino acids at that position. […] FIGS. 17A and 17B provide a schematic of the overall process.

hIL-7R (Example 11) [20] = biological target: T3, hIL-7R (Example 11); test: SPR (Biacore), ratio KD of parent 18B1 to KD of variant [cont'd]
From the text: as §2

hIL-7R (Example 11) [21] = biological target: T3, hIL-7R (Example 11); test: NGS enrichment ratio of the mutation in the scFv library selected at 0.2 nM hIL-7R [cont'd]
From the text: as §3

B1: Anti-IL-7R Antibody (Antibody A) (antibody, human IgG1, kappa, V domains shown)
VH: EVQLVESGGGLVQPGRSLRLSCAASGFTFDDHAMHWVRQAPGKGLEWVSGISWNSRGIGYADSVKGRFTIFRDNAKNSLYLQMNSLRAEDTALYYCAKDEYSRGYYVLDVWGQGTTVTVSS
VL: AIQLTQSPSSLSASVGDRVTITCRASQGISSALAWYQQKPGKAPKLLIYDASSLESGVPSRFSGSGSGTDFTLTISSLQPEDFATYYCQQFNSYPLWITFGQGTRLEIKR
notes: also called 18B1; 18B1 antibody
- fold weaker binding at pH 6.0 than at pH 7.4 [1]: ~4 fold
- fold weaker binding at pH 6.0 than at pH 7.4 [2]: ~4 fold
- Kd (hIL-7R (Example 11) [3]): 1.4 nM
- koff (hIL-7R (Example 11) [3]): 0.00152 s⁻¹
- kon (hIL-7R (Example 11) [3]): 1.09e+06 M⁻¹ s⁻¹
- Kd [4]: 7 nM
- koff [4]: 0.0016 s⁻¹
- kon [4]: 230000 M⁻¹ s⁻¹
- Kd [5]: 5.3 nM
- koff [5]: 0.0013 s⁻¹
- kon [5]: 240000 M⁻¹ s⁻¹
- EC50 [6]: 3.3 nM
- EC50 [7]: 1.4 nM
- IC50 of IL-7 mediated pSTAT5 activation against serum antibody concentration, cynomolgus monkeys [8]: ~2
- KD Relative to 18B1 (hIL-7R (Example 11) [9]): 1
- EC50 [10]: 2 nM
- Kd [11]: 1.7 nM
- koff [11]: 0.0005 s⁻¹
- kon [11]: 290000 M⁻¹ s⁻¹
- Kd [12]: 1.3 nM
- koff [12]: 0.0004 s⁻¹
- kon [12]: 310000 M⁻¹ s⁻¹
- EC50 [13]: 1.9 nM
- EC50 (read off the curve) [14]: ~0.04 µg/mL
- pSTAT5 IC50, IL-7 stimulated CD4+CD45RA+ T cells, CD (n = 10) [15]: 0.36 nM
- pSTAT5 IC50, IL-7 stimulated CD4+CD45RA+ T cells, NHV (n = 19) [15]: 0.6 nM
- pSTAT5 IC50, IL-7 stimulated CD4+CD45RA+ T cells, UC (n = 21) [15]: 0.34 nM
- pSTAT5 IC50, IL-7 stimulated CD4+CD45RA- T cells, CD (n = 10) [15]: 0.36 nM
- pSTAT5 IC50, IL-7 stimulated CD4+CD45RA- T cells, NHV (n = 19) [15]: 0.52 nM
- pSTAT5 IC50, IL-7 stimulated CD4+CD45RA- T cells, UC (n = 21) [15]: 0.28 nM
- pSTAT5 IC50, IL-7 stimulated CD8+CD45RA+ T cells, CD (n = 10) [15]: 0.29 nM
- pSTAT5 IC50, IL-7 stimulated CD8+CD45RA+ T cells, NHV (n = 19) [15]: 0.43 nM
- pSTAT5 IC50, IL-7 stimulated CD8+CD45RA+ T cells, UC (n = 21) [15]: 0.29 nM
- pSTAT5 IC50, IL-7 stimulated CD8+CD45RA- T cells, CD (n = 10) [15]: 0.23 nM
- pSTAT5 IC50, IL-7 stimulated CD8+CD45RA- T cells, NHV (n = 19) [15]: 0.38 nM
- pSTAT5 IC50, IL-7 stimulated CD8+CD45RA- T cells, UC (n = 21) [15]: 0.22 nM
- pSTAT5 IC50, CD4+CD45RA+ T cells in whole blood, IL-7 (0.25 ng/mL) [16]: 0.6 nM
- pSTAT5 IC50, CD4+CD45RA+ T cells in whole blood, IL-7 (2.0 ng/mL) [16]: 2.1 nM

B2: 18B1 LC R24A (antibody, human IgG1, kappa, V domains shown)
VH: B1 VH
VL: B1 VL with R24A
- KD Relative to 18B1 (hIL-7R (Example 11) [17]): 1.15
- KD Relative to 18B1 (hIL-7R (Example 11) [18]): 1.15
- 0.2 nM NGS (hIL-7R (Example 11) [19]): 0.91

B3: 18B1 LC S56A (antibody, human IgG1, kappa, V domains shown)
VH: B1 VH
VL: B1 VL with S56A
- KD Relative to 18B1 (hIL-7R (Example 11) [20]): 0.98
- 0.2 nM NGS (hIL-7R (Example 11) [21]): 0.96
